Data as given in patent US20120288510A1 (UNIVERSITY OF MASSACHUSETTS, published 2012).
Read-outs that look alike come from different tables or passages of the source. No end group written: not given here.

Experiments:
[1] = target: T1, E2-G bacterially expressed fusion protein with the E2 412-423 sequence of genotype 6g (Hepatitis C virus genotype 6g, not fully specified (N-terminus); also: N-terminal thioredoxin fusion partner); assay: ELISA on coated bacterial fusion protein; two-fold antibody dilutions; goat anti-human AP, PNPP
T1 construct: not shown: thioredoxin, N-terminal fusion partner of the pET32 vector; C-terminal myc and 6 histidine tags
T1 chain: QLIKTNGSWHIN-{myc tag-His6}

[2] = target: T2, E2-G bacterially expressed fusion protein with the E2 412-423 sequence of genotype 2b (Hepatitis C virus genotype 2b, also: vector linker residues not given here); assay: as above
T2 construct: not shown: thioredoxin, N-terminal fusion partner of the pET32 vector; C-terminal myc and 6 histidine tags
T2 chain: thioredoxin-HLVNSNGSWHIN-{myc tag-His6 tag}

[3] = target: T3, E2-G bacterially expressed fusion protein with the E2 412-423 sequence of genotype 6k (Hepatitis C virus genotype 6k, not fully specified (N-terminus); also: N-terminal thioredoxin fusion partner); assay: as above
T3 construct: not shown: thioredoxin, N-terminal fusion partner of the pET32 vector; C-terminal myc and 6 histidine tags
T3 chain: QLINSNGSWHVN-{myc tag-His6}

[4] = target: T4, E2-G bacterially expressed fusion protein with the E2 412-423 sequence of genotype 3a (Hepatitis C virus genotype 3a, also: vector linker residues not given here); assay: as above
T4 construct: not shown: thioredoxin, N-terminal fusion partner of the pET32 vector; C-terminal myc and 6 histidine tags
T4 chain: thioredoxin-QLVNSSGSWHIN-{myc tag-His6 tag}

[5] = target: T5, E2-G bacterially expressed fusion protein with the E2 412-423 sequence of genotype 4a (Hepatitis C virus genotype 4a, also: vector linker residues not given here); assay: as above
T5 construct: not shown: thioredoxin, N-terminal fusion partner of the pET32 vector; C-terminal myc and 6 histidine tags
T5 chain: thioredoxin-QLINSNGSWHIN-{myc tag-His6 tag}

[6] = target: T6, E2-G bacterially expressed thioredoxin fusion protein (pET32-E2-G, E2 amino acids 412 to 423) (Hepatitis C virus genotype 1a, not fully specified (N-terminus); also: N-terminal thioredoxin fusion partner); assay: as above
T6 construct: also called WT; not shown: thioredoxin, N-terminal fusion partner of the pET32 vector; C-terminal myc and 6 histidine tags
T6 chain: QLINTNGSWHIN-{myc tag-His6}

N415A [7] = target: T7, N415A (not fully specified); assay: as above
T7 construct: alanine scanning mutant of E2-G; also called pET32-E2-G-N415A; not shown: N-terminal thioredoxin partner and vector-encoded stretch of pET32
T7 chain: QLIATNGSWHINHHHHHH

H421A [8] = target: T8, H421A; assay: as above
T8 construct: alanine scanning mutant of E2-G; also called pET32-E2-G-H421A

N423A [9] = target: T9, N423A; assay: as above
T9 construct: alanine scanning mutant of E2-G; also called pET32-E2-G-N423A

T416A [10] = target: T10, T416A; assay: as above
T10 construct: alanine scanning mutant of E2-G; also called pET32-E2-G-T416A; not shown: N-terminal thioredoxin partner and vector-encoded stretch of pET32

Q412A [11] = target: T11, Q412A (not fully specified); assay: as above
T11 construct: alanine scanning mutant of E2-G; also called pET32-E2-G-Q412A; not shown: N-terminal thioredoxin partner and vector-encoded stretch of pET32
T11 chain: ALINTNGSWHINHHHHHH

N417A [12] = target: T12, N417A; assay: as above
T12 construct: alanine scanning mutant of E2-G; also called pET32-E2-G-N417A

I414A [13] = target: T13, I414A (not fully specified); assay: as above
T13 construct: alanine scanning mutant of E2-G; also called pET32-E2-G-I414A (printed in the text as pET32-E2-G-1414A); not shown: N-terminal thioredoxin partner and vector-encoded stretch of pET32
T13 chain: QLANTNGSWHINHHHHHH

[14] = target: T6, E2-G bacterially expressed thioredoxin …; assay: as above
I422A [15] = target: T14, I422A; assay: as above
T14 construct: alanine scanning mutant of E2-G; also called pET32-E2-G-I422A (printed in the text as pET32-E2-G-1422A)

S419A [16] = target: T15, S419A; assay: as above
T15 construct: alanine scanning mutant of E2-G; also called pET32-E2-G-S419A

[17] = target: T6, E2-G bacterially expressed thioredoxin …; assay: Biacore SPR; antibody captured on goat anti-human IgG Fc, E2-G flowed over at varying concentrations; BIAevaluation fit
E2-D [18] = assay: ELISA on coated bacterial fusion protein; two-fold antibody dilutions; goat anti-human AP, PNPP
N415A [19] = target: T7, N415A; assay: as above
H421A [20] = target: T8, H421A; assay: as above; remark: listed apart in the source
N423A [21] = target: T9, N423A; assay: as above; remark: listed apart in the source
L413A = assay: as above
T416A [22] = target: T10, T416A; assay: as above; remark: listed apart in the source
Q412A [23] = target: T11, Q412A; assay: as above
N417A [24] = target: T12, N417A; assay: as above; remark: listed apart in the source
I414A [25] = target: T13, I414A; assay: as above
[26] = target: T6, E2-G bacterially expressed thioredoxin …; assay: as above
I422A [27] = target: T14, I422A; assay: as above; remark: listed apart in the source
G418A = target: T16, G418A; assay: as above
T16 construct: alanine scanning mutant of E2-G; also called pET32-E2-G-G418A

S419A [28] = target: T15, S419A; assay: as above; remark: listed apart in the source
[29] = target: E2-G bacterially expressed fusion protein with the E2 412-423 sequence of a genotype 5 strain (genba (Hepatitis C virus genotype 5)); assay: ELISA, fusion protein coated on plate
[30] = target: T17, soluble HCV genotype 1b E2-661 (pCDNA-1b-E2-661) (Hepatitis C virus genotype 1b); assay: ELISA on plate coated with 2 µg/ml antigen; two-fold antibody dilutions; goat anti-human AP, PNPP
T17 construct: range 364-661

[31] = target: T1, E2-G bacterially expressed fusion …; assay: ELISA on coated bacterial fusion protein; two-fold antibody dilutions; goat anti-human AP, PNPP
[32] = target: T2, E2-G bacterially expressed fusion …; assay: as above
[33] = target: T3, E2-G bacterially expressed fusion …; assay: as above
[34] = target: T4, E2-G bacterially expressed fusion …; assay: as above
[35] = target: T18, E2-G bacterially expressed fusion protein with the E2 412-423 sequence of genotype 5a (Hepatitis C virus genotype 5a, not fully specified (N-terminus); also: N-terminal thioredoxin fusion partner); assay: as above
T18 construct: not shown: thioredoxin, N-terminal fusion partner of the pET32 vector; C-terminal myc and 6 histidine tags
T18 chain: QFVNTNGSWHIN-{myc tag-His6}

[36] = target: T5, E2-G bacterially expressed fusion …; assay: as above
[37] = target: T6, E2-G bacterially expressed thioredoxin …; assay: as above
[38] = target: T6, E2-G bacterially expressed thioredoxin …; assay: as above
E2-D [39] = assay: as above; remark: listed apart in the source

Sequence of E2-D (P27958 436-463, tags left off): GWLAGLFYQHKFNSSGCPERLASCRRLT

B1: human antibody 83-128 (antibody, V domains shown)
VH: QVQLVESGGGVVQPGRSLRLSCTASGFTFNNYGMHWVRQTPGKGLEWLAVIWFDENNKYYADSVRGRFTISRDNSKNTLFLQMNSLKTEDTAMYYCARDISLVRDAFIYFDFWGLGTLVTVSS
VL: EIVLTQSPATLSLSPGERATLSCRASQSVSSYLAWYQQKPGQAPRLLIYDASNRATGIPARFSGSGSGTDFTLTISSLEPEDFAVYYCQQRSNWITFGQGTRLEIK
EC50 (read off the curve) [1]: ~0.006 µg/mL
EC50 (read off the curve) [2]: ~0.006 µg/mL
EC50 (read off the curve) [3]: ~0.006 µg/mL
EC50 (read off the curve) [4]: ~0.006 µg/mL
EC50 (read off the curve) [5]: ~0.006 µg/mL
EC50 (read off the curve) [6]: ~0.006 µg/mL
EC50 (read off the curve) (N415A [7]): ~0.02 µg/mL
EC50 (read off the curve) (H421A [8]): ~0.02 µg/mL
EC50 (read off the curve) (N423A [9]): ~0.02 µg/mL
EC50 (read off the curve) (T416A [10]): ~0.02 µg/mL
EC50 (read off the curve) (Q412A [11]): ~0.02 µg/mL
EC50 (read off the curve) (N417A [12]): ~0.02 µg/mL
EC50 (read off the curve) (I414A [13]): ~0.03 µg/mL
EC50 (read off the curve) [14]: ~0.02 µg/mL
EC50 (read off the curve) (I422A [15]): ~0.02 µg/mL
EC50 (read off the curve) (S419A [16]): ~0.02 µg/mL
Kd [17]: 3.8 nM
koff [17]: 0.00073 s⁻¹
kon [17]: 190000 M⁻¹ s⁻¹
binding result (E2-D [18]): no binding (tested: 1 µg/ml)

B2: human antibody 95-2 (antibody, V domains shown)
VH: QVQLVESGGGVVQPGRSLRLSCAASGFTFSSYGMHWVRQAPGKGLEWVAVIWFDGNNQYYADSVKGRFTISRDNSKNTLYLQMNSLRAEDTAVYYCARDIFTVVRGFFIYFDYWGQGTLVTVSS
VL: EIVLTQSPATLSLSPGERATLSCRASQSVGSYLAWYQQKPGQAPRLLIYDASNRATGIPARFSGSGSGTDFTLTISSLEPEDFAVYYCQQRSNWVTFGQGTRLEIK
notes: also called clone 95-2
EC50 (read off the curve) (N415A [19]): ~0.02 µg/mL
EC50 (read off the curve) (H421A [20]): ~0.02 µg/mL
EC50 (read off the curve) (N423A [21]): ~0.02 µg/mL
binding result (L413A): binds
EC50 (read off the curve) (T416A [22]): ~0.02 µg/mL
EC50 (read off the curve) (Q412A [23]): ~0.02 µg/mL
EC50 (read off the curve) (N417A [24]): ~0.02 µg/mL
EC50 (read off the curve) (I414A [25]): ~0.02 µg/mL
EC50 (read off the curve) [26]: ~0.02 µg/mL
EC50 (read off the curve) (I422A [27]): ~0.02 µg/mL
EC50 (read off the curve) (G418A): ~0.03 µg/mL
EC50 (read off the curve) (S419A [28]): ~0.02 µg/mL
fold reduction of recognition (reference not named) [29]: 10 fold
EC50 (read off the curve) [30]: ~0.1 µg/mL
EC50 (read off the curve) [31]: ~0.02 µg/mL
EC50 (read off the curve) [32]: ~0.02 µg/mL
EC50 (read off the curve) [33]: ~0.02 µg/mL
EC50 (read off the curve) [34]: ~0.02 µg/mL
EC50 (read off the curve) [35]: ~0.02 µg/mL
EC50 (read off the curve) [36]: ~0.02 µg/mL
EC50 (read off the curve) [37]: ~0.02 µg/mL
EC50 (read off the curve) [38]: ~0.04 µg/mL
binding result (E2-D [39]): no binding (tested: 1 µg/ml)
Kd [17]: 1.9 nM
koff [17]: 0.0003 s⁻¹
kon [17]: 160000 M⁻¹ s⁻¹
